{
  "source": "the Human Domainome abundance scans (Beltran et al. 2025)",
  "note": "± gives the uncertainty stated by the source.",
  "data": [
    {"assay": "abundance fitness (aPCA) (normalised: wild type 0, dead -1); higher = more abundant; growth selection in yeast, the domain comes from the species named", "details": "Homo sapiens", "values": [
      {"substance": "Lipoamide acyltransferase component of branched-chain alpha-keto acid dehydrogenase complex, mitochondrial K187T, P11182", "abundance fitness": "-0.097 ± 0.057"},
      {"substance": "Lipoamide acyltransferase component of branched-chain alpha-keto acid dehydrogenase complex, mitochondrial R178C, P11182", "abundance fitness": "-0.173 ± 0.083"},
      {"substance": "Lipoamide acyltransferase component of branched-chain alpha-keto acid dehydrogenase complex, mitochondrial R179D, P11182", "abundance fitness": "-0.228 ± 0.11"},
      {"substance": "Lipoamide acyltransferase component of branched-chain alpha-keto acid dehydrogenase complex, mitochondrial Q212W, P11182", "abundance fitness": "-0.218 ± 0.046"},
      {"substance": "Lipoamide acyltransferase component of branched-chain alpha-keto acid dehydrogenase complex, mitochondrial L172Y, P11182", "abundance fitness": "-0.139 ± 0.07"},
      {"substance": "Lipoamide acyltransferase component of branched-chain alpha-keto acid dehydrogenase complex, mitochondrial Q212S, P11182", "abundance fitness": "0.004 ± 0.04"},
      {"substance": "Lipoamide acyltransferase component of branched-chain alpha-keto acid dehydrogenase complex, mitochondrial K196P, P11182", "abundance fitness": "-0.051 ± 0.047"},
      {"substance": "Lipoamide acyltransferase component of branched-chain alpha-keto acid dehydrogenase complex, mitochondrial I186V, P11182", "abundance fitness": "-0.046 ± 0.046"},
      {"substance": "Lipoamide acyltransferase component of branched-chain alpha-keto acid dehydrogenase complex, mitochondrial P175V, P11182", "abundance fitness": "-0.029 ± 0.043"},
      {"substance": "Lipoamide acyltransferase component of branched-chain alpha-keto acid dehydrogenase complex, mitochondrial Q212A, P11182", "abundance fitness": "0.006 ± 0.036"},
      {"substance": "Lipoamide acyltransferase component of branched-chain alpha-keto acid dehydrogenase complex, mitochondrial R178P, P11182", "abundance fitness": "-1.38 ± 0.33"},
      {"substance": "Lipoamide acyltransferase component of branched-chain alpha-keto acid dehydrogenase complex, mitochondrial E210D, P11182", "abundance fitness": "-0.006 ± 0.058"},
      {"substance": "Lipoamide acyltransferase component of branched-chain alpha-keto acid dehydrogenase complex, mitochondrial T171W, P11182", "abundance fitness": "-0.49 ± 0.075"},
      {"substance": "Lipoamide acyltransferase component of branched-chain alpha-keto acid dehydrogenase complex, mitochondrial L188W, P11182", "abundance fitness": "-0.513 ± 0.048"},
      {"substance": "Lipoamide acyltransferase component of branched-chain alpha-keto acid dehydrogenase complex, mitochondrial K211F, P11182", "abundance fitness": "-0.232 ± 0.065"},
      {"substance": "Lipoamide acyltransferase component of branched-chain alpha-keto acid dehydrogenase complex, mitochondrial D197P, P11182", "abundance fitness": "-0.76 ± 0.13"},
      {"substance": "Lipoamide acyltransferase component of branched-chain alpha-keto acid dehydrogenase complex, mitochondrial L206P, P11182", "abundance fitness": "-0.291 ± 0.063"},
      {"substance": "Lipoamide acyltransferase component of branched-chain alpha-keto acid dehydrogenase complex, mitochondrial R179W, P11182", "abundance fitness": "-0.28 ± 0.049"},
      {"substance": "Lipoamide acyltransferase component of branched-chain alpha-keto acid dehydrogenase complex, mitochondrial L201V, P11182", "abundance fitness": "-0.096 ± 0.037"},
      {"substance": "Lipoamide acyltransferase component of branched-chain alpha-keto acid dehydrogenase complex, mitochondrial T213V, P11182", "abundance fitness": "-0.028 ± 0.048"},
      {"substance": "Lipoamide acyltransferase component of branched-chain alpha-keto acid dehydrogenase complex, mitochondrial I200R, P11182", "abundance fitness": "-0.764 ± 0.045"},
      {"substance": "Lipoamide acyltransferase component of branched-chain alpha-keto acid dehydrogenase complex, mitochondrial K187C, P11182", "abundance fitness": "-0.251 ± 0.099"},
      {"substance": "Lipoamide acyltransferase component of branched-chain alpha-keto acid dehydrogenase complex, mitochondrial K196I, P11182", "abundance fitness": "-0.185 ± 0.068"},
      {"substance": "Lipoamide acyltransferase component of branched-chain alpha-keto acid dehydrogenase complex, mitochondrial L180W, P11182", "abundance fitness": "-0.56 ± 0.047"},
      {"substance": "Lipoamide acyltransferase component of branched-chain alpha-keto acid dehydrogenase complex, mitochondrial G193K, P11182", "abundance fitness": "-0.732 ± 0.057"},
      {"substance": "Lipoamide acyltransferase component of branched-chain alpha-keto acid dehydrogenase complex, mitochondrial T213G, P11182", "abundance fitness": "0.093 ± 0.036"},
      {"substance": "Lipoamide acyltransferase component of branched-chain alpha-keto acid dehydrogenase complex, mitochondrial T171L, P11182", "abundance fitness": "-0.632 ± 0.17"},
      {"substance": "Lipoamide acyltransferase component of branched-chain alpha-keto acid dehydrogenase complex, mitochondrial K187D, P11182", "abundance fitness": "0.009 ± 0.048"},
      {"substance": "Nanos homolog 2 V87G, P60321", "abundance fitness": "-0.082 ± 0.088"},
      {"substance": "Lipoamide acyltransferase component of branched-chain alpha-keto acid dehydrogenase complex, mitochondrial P175L, P11182", "abundance fitness": "-0.119 ± 0.056"},
      {"substance": "Lipoamide acyltransferase component of branched-chain alpha-keto acid dehydrogenase complex, mitochondrial Y208W, P11182", "abundance fitness": "-0.186 ± 0.05"},
      {"substance": "Lipoamide acyltransferase component of branched-chain alpha-keto acid dehydrogenase complex, mitochondrial Y208G, P11182", "abundance fitness": "-0.172 ± 0.036"},
      {"substance": "Lipoamide acyltransferase component of branched-chain alpha-keto acid dehydrogenase complex, mitochondrial K196S, P11182", "abundance fitness": "-0.121 ± 0.044"},
      {"substance": "Lipoamide acyltransferase component of branched-chain alpha-keto acid dehydrogenase complex, mitochondrial E190S, P11182", "abundance fitness": "-0.079 ± 0.046"},
      {"substance": "Lipoamide acyltransferase component of branched-chain alpha-keto acid dehydrogenase complex, mitochondrial L206E, P11182", "abundance fitness": "0.007 ± 0.06"},
      {"substance": "Lipoamide acyltransferase component of branched-chain alpha-keto acid dehydrogenase complex, mitochondrial L188H, P11182", "abundance fitness": "-0.368 ± 0.094"},
      {"substance": "Lipoamide acyltransferase component of branched-chain alpha-keto acid dehydrogenase complex, mitochondrial D204E, P11182", "abundance fitness": "-0.771 ± 0.1"},
      {"substance": "Lipoamide acyltransferase component of branched-chain alpha-keto acid dehydrogenase complex, mitochondrial A176W, P11182", "abundance fitness": "-0.473 ± 0.045"},
      {"substance": "Lipoamide acyltransferase component of branched-chain alpha-keto acid dehydrogenase complex, mitochondrial D204S, P11182", "abundance fitness": "-0.83 ± 0.068"},
      {"substance": "Lipoamide acyltransferase component of branched-chain alpha-keto acid dehydrogenase complex, mitochondrial Y208C, P11182", "abundance fitness": "0.037 ± 0.092"},
      {"substance": "Lipoamide acyltransferase component of branched-chain alpha-keto acid dehydrogenase complex, mitochondrial G195M, P11182", "abundance fitness": "-0.793 ± 0.16"},
      {"substance": "Lipoamide acyltransferase component of branched-chain alpha-keto acid dehydrogenase complex, mitochondrial T174M, P11182", "abundance fitness": "-0.643 ± 0.084"},
      {"substance": "Lipoamide acyltransferase component of branched-chain alpha-keto acid dehydrogenase complex, mitochondrial T174H, P11182", "abundance fitness": "-0.206 ± 0.069"},
      {"substance": "Lipoamide acyltransferase component of branched-chain alpha-keto acid dehydrogenase complex, mitochondrial K211Q, P11182", "abundance fitness": "-0.024 ± 0.044"},
      {"substance": "Lipoamide acyltransferase component of branched-chain alpha-keto acid dehydrogenase complex, mitochondrial T171A, P11182", "abundance fitness": "-0.215 ± 0.055"},
      {"substance": "Lipoamide acyltransferase component of branched-chain alpha-keto acid dehydrogenase complex, mitochondrial S189V, P11182", "abundance fitness": "-0.199 ± 0.043"},
      {"substance": "Lipoamide acyltransferase component of branched-chain alpha-keto acid dehydrogenase complex, mitochondrial K196V, P11182", "abundance fitness": "-0.124 ± 0.037"},
      {"substance": "Nanos homolog 2 Y76F, P60321", "abundance fitness": "-0.14 ± 0.13"},
      {"substance": "Lipoamide acyltransferase component of branched-chain alpha-keto acid dehydrogenase complex, mitochondrial L172G, P11182", "abundance fitness": "-0.681 ± 0.051"},
      {"substance": "Lipoamide acyltransferase component of branched-chain alpha-keto acid dehydrogenase complex, mitochondrial Q212H, P11182", "abundance fitness": "0.011 ± 0.065"}
    ]}
  ]
}
